From patent US20220073643A1 (NANJING GENSCRIPT BIOTECH, published 2022) come the findings set out here.

B1: 196A12B10 (antibody, V domains shown)
VH: QIQWVQSGPELKKPRETVKISCKASGYTFTDYSMHWVKQAPGKGLKWMGWINSETGEATYADDFRGRFALSLETSATTAFLQINSLKNEDTGTYFCARFYYGNSFASWGQGTTLTVSS
VL: DIVMTQFPSSLTVTAGEKVTMTCKSSQSLLNGGNQKNYLTWYQQKPGLPPKLLIYWASTRESGVPDRFTGSGSGTEFTLTISSVQAEDLAVYYCQNNYYFPLTFGAGTKLELK
B2: 267B2C5 (antibody, V domains shown)
VH: QVQLKESGPGLVAPSQSLAITCTVSGFSLTTYGVSWVRQPPGKGLEWLGVIWGDGSTHYHSALISRLSIRKDNSKSQVFLKVNSLQTDDTATYYCGKPGRGNAMDYWGQGTSVTVSS
VL: DIVMTQSPSSLTVTAGEKVTMSCKSSQSLLNSGNQKNYLTWYQQKPGQSPKLLIYWASTRESGVPDRFTGSGSGTDFTLTISSVQAEDLAVYYCQNDYIYPLTFGGGTTLELK
B3: 273F3D4 (antibody, V domains shown)
VH: QVQLKESGPGLVAPSQSLSITCTVSGFALTTYGVSWVRQPPGKGLEWLGVIWGDGSTHYHSALISRLSIRKDNSKSQVFLKLNSLQTDDTATYYCAKPGRGNAMDYWGQGTSVTVSS
VL: DIVMSQSPSSLTVTAGEKVTMSCKSSQSLLNSGNQKNYLTWYQQKPGQSPKLLIYWASTRESGVPDRFTGSGSGTDFTLTISSMQAEDLAVYYCQNDYIYPLTFGAGTMLELK
B4: 263E9F3 (antibody, V domains shown)
VH: EIQVQQSGPELMKPGASVKISCRSSGYSFTSYYIHWVKQSRGKSLEWIGYIDPFSGGTRYNQKFEGKATLTVDKSSTTAYMHLSSLTSEDSAVYYCASLRFFAYWGQGTLVTVSA
VL: DIVMTQSPSSLTVTAGEKVTMTCKSSQSLLNSGNQENYLTWYQQKPGQPPELLISRASTRQSGVPDRFTGSGSGTDFTLTISSVQTEDLAVYYCQNDYSYPLTFGAGTKLELK
B5: 198F10B8 (antibody, V domains shown)
VH: QAYLQQSGAELVRSGASVRMSCKASGYTFSSYNMHWVKQTPGQGLEWIGYIYPGNGGTNYNQKFKDKATLTADTSSSTAFIQISSLTSEDSAVYFCLTGRGFAYWGQGTLVTVSA
VL: DIVMTQSPSSLTVTAGERVTMSCKSSQSLFNSGNQKNYLTWYQQKPGQPPKLLIYRASTRESGVPDRFTGSGSGTDFTLTISSVQAEDLAVYYCQNDYSYPLTFGVGTKLELK
B6: 259C6F4 (antibody, V domains shown)
VH: QAYLQQSGAELVRSGASVKMSCKASGYTFSSHNIHWVKQTPGQGLEWIGYIYPGNGDTNYNQKFKGKATLTADTSSSTAYMQISSLTSEDSAVYFCARDYYGNSFVYWGQGTLVTVSA
VL: DIVMIQSPSSLTEKAGEKVSMSCKSSQSLLNSGNQKNYLTWYQQKPGQPPKLLIYWASTRESGVPDRFTGSGSGTDFTLTISSVQAEDLAVYYCQNAYRFPFTFGAGTKLELK
B7: 266B11F7 (antibody, V domains shown)
VH: QVQMKESGPGLVAPSQSLSITCTVSGFSLTTYGVTWVRQPPGKGLEWLGVIWGDGSTNYHSALTSRLRISKDKSKSQVFLKLSSLQTDDTATYYCAKPGRGNALDYWGQGTSVTVSS
VL: DIVMTQSPSSLTVTAGEKVTMRCKSSQSLLNSGNQKNYLTWYQQKPGQPPKLLVYWASTRESGVPDRFTGSGSGTDFTLTVSSVQAEDLAVYYCQNDYIFPLTFGAGTKLELK
B8: 262H9H6 (antibody, V domains shown)
VH: QAYLQQSGAELVRSGASVKMSCKASGYTFTSHNMHWVKQTPGQGLEWIGYISPGNGYTNYNQKFRGKATLTADTSSSTAYMQISSLTSEDSAVYFCTRDYYGNSFTYWGQGTLVTVSA
VL: DIVMTQSPSSLTEKAGERVSMSCKSSQSLFNSGNQKNYLTWYQQKPGQPPKLLIYWASTRESGVPDRFTGSGSGTEFTLTISSVQAEDLAVYYCQNNYWFPFTFGAGTKLELK
B9: 275H9A2 (antibody, V domains shown)
VH: QAYLQQSGAELVRSGASVKMSCRASGYSFTSHNMHWVKQTPGQGLEWIGYIYPGNGGSYYNQKFKGKAILTADTSSSTAYMQISSLTSEDSAVYFCTRDYYGNSFVYWGQGTLVTVSA
VL: DVVMTQSPSSLTEKTGEKVSMSCKSSQSLLNSGNQKNYLTWYQQKPGQPPKLLIYWASTRESGVPDRFTGSGSGTDFTLTISSLQTEDLAVYYCQNNFRYPFTFGAGTKLELK
B10: 260F8A6 (antibody, V domains shown)
VH: QAYLQQSGAELVRSGASVKMSCRASGYTFTSHNMHWVKQTPGQGLEWIGYIYPGNGNTYYNQKFKGKATLTADTSSNTAYMQINSLTSEDSAVYFCVRDYYGNSFVYWGQGTLVTVSA
VL: DVVMTQSPSSLTEKTGEKVSMSCKSSQSLLNSGNQKNYLTWYQQKPGQPPKLLIYWASTRESGVPDRFIGSGSGTDFTLTISSLQTEDLAVYYCQNNYMYPFTFGAGTKLELK
B11: 260G9E8 (antibody, V domains shown)
VH: QADLQQSGAELVRSGASVKMSCKASGYTFASHNMHWVKQTPGQGLEWIGYIYPGNGGTKYNQKFTGKATLTADTSSSTAYMQITSLTSEDSAVYFCARDYYGNSFAYWGQGTLVTVSA
VL: DIVMTQSPSSLTEKAGEKVSMRCKSSQSLLNSGNQKNYLTWYQQKPGQPPKLLIYWASTRESGVPDRFTGSGSGTDFTLTISSVQADDLAVYYCQNDYMFPFTFGAGTKLELK
B12: 259C6F7 (antibody, V domains shown)
VH: QAYLQQSGAELVRSGASVKMSCKASGYTFSSHNIHWVKQTPGQGLEWIGYIYPGNGDTNYNQKFKGKATLTADTSSSTAYMQISSLTSEDSAVYFCARDYYGNSFVYWGQGTLVTVSA
VL: DIVMIQSPSSLTEKAGEKVSMSCKSSQSLLNSGNQKNYLTWYQQKPGQPPKLLIYWASTRESGVPDRFTGSGSGTDFTLTISSVQAEDLAVYYCQNAYRFPFTFGAGTKLELK
B13: 262C7C10 (antibody, V domains shown)
VH: QAYLQQSGAELVRSGASVKMSCKASGYTFTNYNIHWVKQTPGQGLEWIGYIYPGNGGNYYNQKFKGKATLTADTSSITAYMQISSLTSEDSAVYFCARDYYGNSFAYWGQGTLVTVSA
VL: DIVMTQSPSSLTVTAGEKVTMNCKSSQSLLNSGNQKNYLTWYQQKPGQPPKLLIYWASTRESGVPDRFTGSGSGTDFTLTISSVQAEDLAIYYCQNDYYYPLTFGAGTKLELK
B14: 275B2G2 (antibody, V domains shown)
VH: EVMLVESGGGLVKPGGSLKLSCAASGFTFRDYTMSWVRQTPEKRLEWVATSIIGGTYTYYPDSVKGRFTISRDNVKNTLYLQMSSLRSEDTAMYYCSRLGRGNAMDYWGQGTSVTVSS
VL: DIVMTQSPSSLTVTAGEKVTMSCKSSQSLLNSGNQKNYLTWYQQKPGQPPKLLIYWASTRESGVPDRFTGSGSGTDFTLTISSVQAEDLAVYYCQNDYSYPFTFGSGTKLEIK
B15: 271B1B6 (antibody, V domains shown)
VH: QAYLQQSGAELVRSGASVKMSCKASGYTFTNYNIHWVKQTPGQGLEWIGYIYPGNGGNYYNQKFKGKATLTADTSSITAYMQISSLTSEDSAVYFCARDYYGNSFAYWGQGTLVTVSA
VL: DIVMTQSPSSLTVTAGEKVTMNCKSSQSLLNSGNQKNYLTWYQQKPGQPPKLLIYWASTRESGVPDRFTGSGSGTDFTLTISSVQAEDLAIYYCQNDYYYPLTFGAGTKLELK
B16: 267H5F12 (antibody, V domains shown)
VH: QAYLQQSGAELVRSGASVKMSCKASGYTFTSHNMHWVKQTPGQGLEWIGYISPGNGYTNYNQKFRGKATLTADTSSSTAYMQISSLTSEDSAVYFCTRDYYGNSFTYWGQGTLVTVSA
VL: DIVMTQSPSSLTEKAGERVSMSCKSSQSLFNSGNQKNYLTWYQQKPGQPPKLLIYWASTRESGVPDRFTGSGSGTEFTLTISSVQAEDLAVYYCQNNYWFPFTFGAGTKLELK
B17: 265E6G2 (antibody, V domains shown)
VH: QAYLQQSGAELVRSGASVKMSCKASGYTFTSYNMHWVKQTPGQGLEWIGYIYPGNGGTNYNQKFKGKATLTADTSSSTAYMQISSLTSEDSAVYFCARDYYGNSFAYWGQGTLVTVSA
VL: DLVMTQSPSSLTVTAGEKVTMSCKSSQSLLNSGNQKNYLTWYQQKPGQPPKLLIYWASTRESGVPDRFTGSGSGTDFTLTISNIQAEDLAVYYCQNDYSYPLPFGAGTKLELR
B18: 268D7H9 (antibody, V domains shown)
VH: QAYLQQSGAELVRSGASVKMSCKASGYTFTNYNIHWVKQTPGQGLEWIGYIYPGNGGNYYNQKFKGKATLTADTSSSTAYMQISSLTSEDSAVYFCARDYYGNSFAYWGQGTLVTVSA
VL: DIAMTQSPSSLTVTAGEKVTMNCKSSQSLLNSGNQKNYLTWYQQKPGQPPKLLIYWASTRESGVPDRFTGSGSGTDFTLTISSVQAEDLAIYYCQNDYYYPLTFGAGTTLELK
B19: 273C10E5 (antibody, V domains shown)
VH: QVQLQQSGAELVKPGASVKLSCKASGYTFTSFGINWLRQRPEQGLEWIGWIFPGDGNSKYNENFKGKATLTTDKSSSTAYMQVTRLTSEDSAVYFCARFYYGNSFANWGQGTLVTVSA
VL: DIVMTQSPSSLTVTAGEKVTMSCKSSQSLLNSGNQKNYLTWYQQKPGQPPKLLIYWAATRESGVPDRFAGSGSGTDFTLTISSVQAEDLAVYYCQNDYFYPFTFGAGTKLELK

The assay has as its target human Claudin18.2 (human). Kind of assay: cell-based or functional assay.
With B1, the “CDC % Relative activity” value is 93.6% and the “CDC EC50” value was 1.69 µg/mL.

Regarding B2, the “CDC % Relative activity” value was determined as 142% and the “CDC EC50” value was 1.21 µg/mL.

Take B3: the “CDC % Relative activity” value was 105% and the “CDC EC50” value worked out at 1.56 µg/mL.

On to B4, for which the “CDC % Relative activity” value amounted to 116% and the “CDC EC50” value is 1.48 µg/mL.

As to B5, the “CDC % Relative activity” value was 526% and the “CDC EC50” value is 0.3 µg/mL.

As to B6, the “CDC % Relative activity” value was 125% and the “CDC EC50” value worked out at 1.19 µg/mL.

For B7, the “CDC % Relative activity” value was 97.4% and the “CDC EC50” value amounted to 1.77 µg/mL.

Turning to B8, the “CDC % Relative activity” value amounted to 183% and the “CDC EC50” value amounted to 0.941 µg/mL.

Regarding B9, the “CDC % Relative activity” value is 142% and the “CDC EC50” value is 1.15 µg/mL.

Regarding B10, the “CDC % Relative activity” value is 129% and the “CDC EC50” value was 1.15 µg/mL.

Turning to B11, the “CDC % Relative activity” value came to 164% and the “CDC EC50” value turned out to be 1.05 µg/mL.

As for B12, the “CDC % Relative activity” value was 117% and the “CDC EC50” value worked out at 1.27 µg/mL.

With B13, the “CDC % Relative activity” value came out at 520% and the “CDC EC50” value was 0.331 µg/mL.

On to B14, for which the “CDC % Relative activity” value came out at 98.4% and the “CDC EC50” value is 1.66 µg/mL.

As to B15, the “CDC % Relative activity” value was determined as 145% and the “CDC EC50” value is 1.12 µg/mL.

B16: the “CDC % Relative activity” value was 172% and the “CDC EC50” value was 1 µg/mL.

On to B17, for which the “CDC % Relative activity” value was 526% and the “CDC EC50” value is 0.327 µg/mL.

Consider B18, for which the “CDC % Relative activity” value came to 140% and the “CDC EC50” value was found to be 1.23 µg/mL.

For the molecule B19, the “CDC % Relative activity” value is 67.6% and the “CDC EC50” value is 2.41 µg/mL.
